From article PMC4187101

Molecular target: DNA adenine-N6 methyltransferase M.TaqI (Thermus aquaticus) (UniProt P14385)
Assay: competition, 2-aminopurine fluorescence titration
Conditions: 20 mM TrisOAc pH 7.9, 10 mM Mg(OAc)2, 50 mM KOAc, 0.01% reduced Triton X-100, with 1 mM DTT (unlocked) or no reducing agent (locked), 400 nM duplex vs 200 nM …

Chain of DNA adenine-N6 methyltransferase M.TaqI (Thermus aquaticus) (P14385 whole entry): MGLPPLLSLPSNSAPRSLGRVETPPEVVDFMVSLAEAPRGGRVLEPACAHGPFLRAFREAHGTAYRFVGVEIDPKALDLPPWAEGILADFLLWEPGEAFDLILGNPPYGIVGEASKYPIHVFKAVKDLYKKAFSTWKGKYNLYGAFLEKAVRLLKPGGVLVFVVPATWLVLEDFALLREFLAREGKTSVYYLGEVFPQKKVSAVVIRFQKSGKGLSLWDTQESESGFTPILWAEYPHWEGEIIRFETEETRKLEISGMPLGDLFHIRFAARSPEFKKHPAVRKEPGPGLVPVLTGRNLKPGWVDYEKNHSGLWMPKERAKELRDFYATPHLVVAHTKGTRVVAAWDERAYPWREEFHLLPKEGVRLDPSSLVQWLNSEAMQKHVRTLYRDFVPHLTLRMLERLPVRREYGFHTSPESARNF

“GCCGCTCGNTGCCG / CGGCAUCGAGCGGC [1I6S-Et-S4U2 (locked, cross-linked A/T analog)]” showed a Kd (strand 1 position 9 (N) = 6-thio-2'-deoxyinosine, S-ethylene-S interstrand cross-linked to 4-thio-2'-deoxyuridine at strand 2 U6, strand 2 A9 = N6-methyl-dA) of 6 nM.
In the case of “GCCGCTCGNTGCCG / CGGCAUCGAGCGGC [1I6S·2U4S (unlocked A/T analog)]”, the Kd (strand 1 position 9 (N) = 6-thio-2'-deoxyinosine (I6S), strand 2 U6 = 4-thio-2'-deoxyuridine (U4S), A9 = N6-methyl-dA, all other residues DNA) is reported as 1 nM.
